Test results as given in US6950754.

Molecular target: GCN4-p1
Assay: size exclusion chromatography, self-association

GCN4-p1 (peptide; modification not given), sequence (chain, as listed by the source): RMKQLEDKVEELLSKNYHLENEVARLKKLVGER

oligomerization state (N): 2
Substance: GCN4-p1 (peptide; modification not given)
